What is called Kd is the concentration at which binding is half-saturated. Low readings indicate higher affinity, high ones lower affinity. For orientation: stoichiometry N means the number of molecules, sites or subunits per partner or assembly.

The record followed here is article PMC5458804 (Nature cell biology, 2017).

Numbering of substitutions follows the chain as printed. Names and notes keep the numbering of the source.

Experiment [1] concerns the target p60N/p80C heterodimer (mouse) (UniProt Q9WV86). The experiment in a line: AUC.
For experiment [2] the target is unchanged. The experiment in a line: crystal structure.
Experiment [3] concerns the target p80C-S538L (mouse, UniProt Q8BG40 481-658, S538L). The experiment in a line: AUC.
In experiment [4] the target is p80C-Y574A (mouse, UniProt Q8BG40 481-658, Y574A). The experiment in a line: AUC.
Experiment [5] deals with p80C (C-terminal domain of katanin p80) (mouse, UniProt Q8BG40 481-658). The experiment in a line: AUC.
Experiment [6] addresses p80C-R615A (mouse, UniProt Q8BG40 481-658, R615A). The experiment in a line: AUC.

p80C (C-terminal domain of katanin p80), sequence (Q8BG40 481-658): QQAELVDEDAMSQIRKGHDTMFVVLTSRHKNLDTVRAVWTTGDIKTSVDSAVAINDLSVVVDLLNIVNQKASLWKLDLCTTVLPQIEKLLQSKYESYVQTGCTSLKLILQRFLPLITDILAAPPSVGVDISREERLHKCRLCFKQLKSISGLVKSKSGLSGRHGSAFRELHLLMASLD
p80C-S538L, sequence (Q8BG40 481-658 S538L): as the sequence (Q8BG40 481-658) above, with S58L counted along it
p80C-R615A, sequence (Q8BG40 481-658 R615A): as the sequence (Q8BG40 481-658) above, with R135A counted along it
p80C-Y574A, sequence (Q8BG40 481-658 Y574A): as the sequence (Q8BG40 481-658) above, with Y94A counted along it

TAMRA-labeled ASPMp peptide registered a Kd in experiment [1] of 9 µM.
In the case of “ASPMp (peptide corresponding to the third repeat of ASPM, as crystallised)”, in experiment [2], the stoichiometry N amounted to 1.

B1: p60N (N-terminal domain of katanin p60) (domain or fragment)
chain: MSLQMIVENVKLAREYALLGNYDSAMVYYQGVLDQMNKYLYSVKDTHLRQKWQQVWQEINVEAKQVKDIMKTLESFKL
Consider B1, for which the binding result in experiment [3], in experiment [4], in experiment [5] and in experiment [6] was “binds” each time.

B2: p60N-L19A (domain or fragment)
chain: B1 chain with L19A
Consider B2, for which the binding result in experiment [5] is “binds”.

B3: p60N-L18A (domain or fragment)
chain: B1 chain with L18A
B3: the binding result in experiment [5] is “binds”.
